Data reported in the nanobody polyreactivity screen of Harvey et al. (2022).

Test: yeast display, Sf9 membrane polyspecificity reagent, FACS + sequencing; frameworks hold sequencing errors
In short: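 A synthetic nanobody library was expressed on Saccharomyces cerevisiae BJ5465 by galactose induction for 36–48 hours. The library was stained for 1 hour at 4 °C with 10% biotinylated, detergent-solubilized Sf9 membrane reagent and enriched with streptavidin microbeads before FACS. Low and high (top ~1%) gates were set on anti-HA fluorescence for expression and streptavidin fluorescence for reagent binding, and each polyreactivity label reflects the gate of origin.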
For “QVQLVESGGGLVQAGGSLRLSCAASGNTFNSYAMGWYRQAPGKERELVAAIRWRGTSTYYADSVKGRFTISRDTAKNTVYLQMNSLKPEDTAVYYCAADVVRSNFYGTFLYDYDYWGQGTQVTVSS”, the “polyreactivity (PSR sort gate)” value was “low polyreactivity”. In the case of “QVQLVESGGGLVQAGGSLRLSCAASGNTFPFNAMGWYRQAPGKERELVAAISRGGSTYYADSVKGRFTISRDNAKNTVYLQMISLKPEDTAVYYCAVSAGKRRLDYWGQGTQVTVSS”, the “polyreactivity (PSR sort gate)” value is reported as “high polyreactivity”. With “QVQLVESGGGLVQAGGSLRLSCAASGNTFPRYAMGWYRQAPGKERELVASISWSGGSTYYADSVKGRFTISRDNAKNTVYLQMNSLKPEDTAVYYCNARRAYRAWYYPYDYWGQGTQVTVSS” the “polyreactivity (PSR sort gate)” value was “high polyreactivity”. With “QVQLVESGGGLVQAGGSLRLSCAASGNTFPSYVMGWYRQAPGKERELVAAINRGGGTYYADSVKGRFTISRDNAKNTVYLQMNSLKPEVTAVYYCAVRDQRHPYMDYWGQGTQVTVSA” the “polyreactivity (PSR sort gate)” value was “low polyreactivity”. In the case of “QVQLVESGGGLVQAGGSLRLSCAASGNTFPTYAMGWYRQAPGKERELVAAISRRGGSTYYADSVKGRFTISRDNAKNTVYLQMNSLKPEDTAVYYCARPRRSVNVYKYIYNYWGQGTQVTVSS”, the “polyreactivity (PSR sort gate)” value is reported as “high polyreactivity”. With “QVQLVESGGGLVQAGGSLRLSCAASGNTFPVYAMGWYRQASGKERELVATITSGGSTNYADSVKGRFTISRDNAKNTVYLQMNSLKPEDTAVYYCARRAVYSKRRYDYWGQVTQVTVSS” the “polyreactivity (PSR sort gate)” value was “low polyreactivity”. For “QVQLVESGGGLVQAGGSLRLSCAASGNTFQRYTMGWYRQAPGKERELVAAITWSGGNTYYADSVKGRFTISRDNAKNTVYLQMNSLKPEDTAVYYCATYYWLGLSLYDYWGQGTQVTVSS”, the “polyreactivity (PSR sort gate)” value was “low polyreactivity”. With “QVQLVESGGGLVQAGGSLRLSCAASGNTFRDYAMGWYRQAPGKERELVAAITSAGARTYYADSVKGRFTISRDNAKNTVYLQMNSLKPEDTAVYYCAADWSGYYTYDYWGQGTQVTVSS” the “polyreactivity (PSR sort gate)” value was “low polyreactivity”. With “QVQLVESGGGLVQAGGSLRLSCAASGNTFRFYAMGWYRQAPGKERELVADITRGGSTNYADSVKGRFTISRDNAKNTVYLQMNSLKPEDTAVYYCAARPWYYTSSFYYGRYDYWGQGTQVTVSS” the “polyreactivity (PSR sort gate)” value was “high polyreactivity”. For “QVQLVESGGGLVQAGGSLRLSCAASGNTFRWYVMGWYRQAPGKERELVAAITSSGSTTYYADSVKGRFTISRDNAKNTVYLQLNSLKPEDTAVYYCAARNYGPYDYWGQGTQVTVSS”, the “polyreactivity (PSR sort gate)” value was “low polyreactivity”. With “QVQLVESGGGLVQAGGSLRLSCAASGNTFRWYVMGWYRQAPGKERELVAAITSSGSTTYYADSVKGRFTISRDNAKNTVYLQMNSLKPEDTAVYYCAADGRTITYSPVDYDSWGQGTQVTVSS” the “polyreactivity (PSR sort gate)” value was “low polyreactivity”. In the case of “QVQLVESGGGLVQAGGSLRLSCAASGNTFRYYAMGWYRQAPGKERELVAAINRSGGRTYYADSVKGRFTISRDNAKNTVYLQMNSLKPEDTAVYYCARSIRYGRGVYKGGYWGQGTQVTVSS”, the “polyreactivity (PSR sort gate)” value is reported as “high polyreactivity”. In the case of “QVQLVESGGGLVQAGGSLRLSCAASGNTFRYYAMGWYRQAPGKERELVAAISESGGRTYYADSVKGRFTISRDNAKNTVYLQMNSLNPEDTAVYYCAASRWARTWWYGYNYWGQGTQVTVSS”, the “polyreactivity (PSR sort gate)” value is reported as “high polyreactivity”. With “QVQLVESGGGLVQAGGSLRLSCAASGNTFSGNAMGWYRQAPGKQRELVATINSGGGSTNYADSVTGRFSISRDNAKNTVYLQMNSLKPEDTAGYYCAASAYTWRGIDSSYLTVTYDYWGQGTQVTVSS” the “polyreactivity (PSR sort gate)” value was “low polyreactivity”. For “QVQLVESGGGLVQAGGSLRLSCAASGNTFSNYAMGWYRQAPGKERELVAAISRSGGRTYYADSVKGRFTISRDNAKNSVYLKMNSLKPEDTAVYDCIATSNGESYYWGQGTQVTVSS”, the “polyreactivity (PSR sort gate)” value was “high polyreactivity”. With “QVQLVESGGGLVQAGGSLRLSCAASGNTFSPYVMGWYRQAPGKERELVAAISKGGGSTYYADSVKGRFTISRDNAKNTVYLQMNSLKPEDTAVYYCAASAGPRASYYYWGQGTQVTVSS” the “polyreactivity (PSR sort gate)” value was “high polyreactivity”. With “QVQLVESGGGLVQAGGSLRLSCAASGNTFTSYAMGWYRQAPGKERELVAAISASGSSTYYADSVKGRFTISRDNAKNTVYLQMNSLKPEDTAVYYCNAVKYRVESSYDYWGQGTQVTVSS” the “polyreactivity (PSR sort gate)” value was “low polyreactivity”. In the case of “QVQLVESGGGLVQAGGSLRLSCAASGNTFTTYAMGWYRQAPGKERELVAAISRRGGSTYYADSVKGRFTISRDNAKNTVYLQMNSLKPDDTAVYYCARRYFYTYGYWGQGTQVTVSS”, the “polyreactivity (PSR sort gate)” value is reported as “high polyreactivity”. In the case of “QVQLVESGGGLVQAGGSLRLSCAASGNTFTVNAMGWYRQAPGKERELVAAINYSGGSTYYADSVKGRFTISRDNAKNTVYLQMNSLKPEDTAVYYCAASPDELLYEMYYWGQGTQVTVSS”, the “polyreactivity (PSR sort gate)” value is reported as “low polyreactivity”. In the case of “QVQLVESGGGLVQAGGSLRLSCAASGNTFVAYAMGWYRQAPGKERELVAGITRGGTTYYADSVKGRFTISRDNAKNTVYLQMNSLKPEDTAVYYCAARLGYRYNYWGQGTQVTVSS”, the “polyreactivity (PSR sort gate)” value is reported as “high polyreactivity”. In the case of “QVQLVESGGGLVQAGGSLRLSCAASGNTFVDYAMVWYRQAPGKERELVAAIDQTGGSTYYADSVKGRFTISRDNAKNTVYLQMNSLKPEDTAVYYCARDLAYRKDLYPRWYDYWGQGTQVTVSS”, the “polyreactivity (PSR sort gate)” value is reported as “low polyreactivity”. With “QVQLVESGGGLVQAGGSLRLSCAASGNTFVPYVMGWYRQAHGKERELVAAISRRGGSTRYADSVKGRFTISRDNAKNTVYLQMNSLKPEDTAVYYCAADGYVFALQRSRGVDFGYEYWGQGTQGTVSS” the “polyreactivity (PSR sort gate)” value was “high polyreactivity”. For “QVQLVESGGGLVQAGGSLRLSCAASGNTFWYYAMGWYRQAPGKEREFVAAISRRGTTTYYADSVKWRFTISRDNAKNTVYLQMNSLKPEDTAVYYCAARRYVSVFRVSATGLDLGYWGQGTQVTVSS”, the “polyreactivity (PSR sort gate)” value was “high polyreactivity”. In the case of “QVQLVESGGGLVQAGGSLRLSCAASGNTFWYYAMGWYRQAPGKERELVAAISWDGGITYYADSVKGRFTISRDNAKNTVFLQMNRLKPEDTAVYYCATLIPRKGSRYYHRGYWGQGTQLTVSS”, the “polyreactivity (PSR sort gate)” value is reported as “high polyreactivity”. For “QVQLVESGGGLVQAGGSLRLSCAASGNTFYDNAMGWYRQTPGKERELVAAISYNDGDTYYADSVKGRFTISRDNAKNTVYLQMNSLKPEDTAVYFCAAVVRRVRGARGQEGDNYWGQGTQVTVSS”, the “polyreactivity (PSR sort gate)” value was “high polyreactivity”. With “QVQLVESGGGLVQAGGSLRLSCAASGNTFYGYAMGWYRPAPGKERELVASITLSGDSTYYADSVKGRFTISRDNAKNTVYLQMNSLKPEDTAVYYCAGVYTYPLGYYHYTYDYWGQGTQVTVSS” the “polyreactivity (PSR sort gate)” value was “low polyreactivity”. In the case of “QVQLVESGGGLVQAGGSLRLSCAASGNTFYGYAMGWYRQAPGKERELVASITLSGDSTYYADSVKGRFTISRDNAMNTVYLQMNSLKPEYTAVYYCAGVYTYPLGYYHYTYDYWGQGTQVTVSS”, the “polyreactivity (PSR sort gate)” value is reported as “low polyreactivity”. With “QVQLVESGGGLVQAGGSLRLSCAASGNTFYKYAMGWYRQAPGKERELVADISWSGGSTYYADSVKGRFTISRDNAKNTVYLQMNSLKPEDTAVYYCNADTPVWDGHAYPVDYWGQGTQVTVSS” the “polyreactivity (PSR sort gate)” value was “low polyreactivity”. In the case of “QVQLVESGGGLVQAGGSLRLSCAASGNTFYRNAMGWSRQAPGKERELVAAIDYSAGSTYYADSVKGRFTISRDNAKNTVYLQMNSLKPEDTAVYYCAADARTSRGRRYYYWGQGTQVTVSS”, the “polyreactivity (PSR sort gate)” value is reported as “low polyreactivity”. In the case of “QVQLVESGGGLVQAGGSLRLSCAASGNTFYRYAMGWYRQAPGKERELVAAISWSGSSTYYADSVKGRFTISRDNAKNTVYLQMNSLKPEDTAVYYCAAGTYDGGYHYDYWGQGTQVTVSS”, the “polyreactivity (PSR sort gate)” value is reported as “high polyreactivity”. For “QVQLVESGGGLVQAGGSLRLSCAASGNTFYVNVMGWYRQAPGKEREFVAAISTRGVSTSYADSVKGRVTISRDNAKNTVYLQMNSLKPEDTAVYYCAASFRRPQPKGSTYGYWGQGTQVTVSS”, the “polyreactivity (PSR sort gate)” value was “high polyreactivity”.
